Results: the supplement of paper PMC5998384

How the values were obtained:
HeLa Kyoto [1] = test: thermal stability score vs G1/S (z-score of summed log2 fold changes over temperatures); higher = more thermally stable than in G1/S
HeLa Kyoto [2] = test: solubility change mitosis vs G1/S (difference of NP-40 vs SDS log2 ratios) (log2 ratio difference); higher = more soluble in mitosis
HeLa Kyoto [3] = test: solubility in G1/S (NP-40 vs SDS abundance) (log2 ratio); higher = more soluble; settings: cell cycle stage: G1/S
HeLa Kyoto [4] = test: melting temperature (median over replicates), in situ; higher = more thermally stable
[5] = cell cycle stage: early G1 (4.5 h after nocodazole release)
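Throughout, for melting temperature (median over replicates), in situ: HeLa Kyoto cells synchronized by double thymidine or nocodazole block, proteins quantified by TMT10plex mass spectrometry, three independent biological replicates.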
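Throughout, for solubility change mitosis vs G1/S (difference of NP-40 vs SDS log2 ratios): synchronized HeLa Kyoto cells (double thymidine block for G1/S, nocodazole release for mitosis), protein amounts in NP-40 versus SDS lysates quantified by mass spectrometry, three biological replicates.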
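Throughout, for solubility in G1/S (NP-40 vs SDS abundance): HeLa Kyoto cells arrested at G1/S by double thymidine block, proteins quantified by TMT10plex mass spectrometry in mild NP-40 versus SDS extracts, three biological replicates.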
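Throughout, for thermal stability score vs G1/S (z-score of summed log2 fold changes over temperatures): synchronized HeLa Kyoto cells, proteins quantified by TMT10plex mass spectrometry, three biological replicates, mitosis taken 0.5 h after nocodazole release, G1/S directly after double thymidine block.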

Row | Sequence | thermal stability score (HeLa Kyoto [1]; [5]) | thermal stability score (HeLa Kyoto [1]; cell cycle stage: mitosis) | solubility change mitosis (log2) (HeLa Kyoto [2]) | solubility in G1/S (log2) (HeLa Kyoto [3]) | melting temperature (HeLa Kyoto [4]; cell cycle stage: G1/S) [°C] | melting temperature (HeLa Kyoto [4]; cell cycle stage: mitosis) [°C]
1 | MERQKRKADIEKGLQFIQSTLPLKQEEYEAFLLKLVQNLFAEGNDLFREKDYKQALVQYMEGLNVADYAASDQVALPRELLCKLHVNRAACYFTMGLYEKALEDSEKALGLDSESIRALFRKARALNELGRHKEAYECSSRCSLALPHDESVTQLGQELAQKLGLRVRKAYKRPQELETFSLLSNGTAAGVADQGTSNGLGSIDDIETDCYVDPRGSPALLPSTPTMPLFPHVLDLLAPLDSSRTLPSTDSLDDFSDGDVFGPELDTLLDSLSLVQGGLSGSGVPSELPQLIPVFPGGTPLLPPVVGGSIPVSSPLPPASFGLVMDPSKKLAASVLDALDPPGPTLDPLDLLPYSETRLDALDSFGSTRGSLDKPDSFMEETNSQDHRPPSGAQKPAPSPEPCMPNTALLIKNPLAATHEFKQACQLCYPKTGPRAGDYTYREGLEHKCKRDILLGRLRSSEDQTWKRIRPRPTKTSFVGSYYLCKDMINKQDCKYGDNCTFAYHQEEIDVWTEERKGTLNRDLLFDPLGGVKRGSLTIAKLLKEHQGIFTFLCEICFDSKPRIISKGTKDSPSVCSNLAAKHSFYNNKCLVHIVRSTSLKYSKIRQFQEHFQFDVCRHEVRYGCLREDSCHFAHSFIELKVWLLQQYSGMTHEDIVQESKKYWQQMEAHAGKASSSMGAPRTHGPSTFDLQMKFVCGQCWRNGQVVEPDKDLKYCSAKARHCWTKERRVLLVMSKAKRKWVSVRPLPSIRNFPQQYDLCIHAQNGRKCQYVGNCSFAHSPEERDMWTFMKENKILDMQQTYDMWLKKHNPGKPGEGTPISSREGEKQIQMPTDYADIMMGYHCWLCGKNSNSKKQWQQHIQSEKHKEKVFTSDSDASGWAFRFPMGEFRLCDRLQKGKACPDGDKCRCAHGQEELNEWLDRREVLKQKLAKARKDMLLCPRDDDFGKYNFLLQEDGDLAGATPEAPAAAATATTGE [ZC3H7B] | 1.16 | 1.26 | 0.118 | -0.354 | 48 | 47.6
2 | MERREEQPGAAGAGAAPALDFTVENVEKALHQLYYDPNIENKNLAQKWLMQAQVSPQAWHFSWQLLQPDKVPEIQYFGASALHIKISRYWSDIPTDQYESLKAQLFTQITRFASGSKIVLTRLCVALASLALSMMPDAWPCAVADMVRLFQAEDSPVDGQGRCLALLELLTVLPEEFQTSRLPQYRKGLVRTSLAVECGAVFPLLEQLLQQPSSPSCVRQKVLKCFSSWVQLEVPLQDCEALIQAAFAALQDSELFDSSVEAIVNAISQPDAQRYVNTLLKLIPLVLGLQEQLRQAVQNGDMETSHGICRIAVALGENHSRALLDQVEHWQSFLALVNMIMFCTGIPGHYPVNETTSSLTLTFWYTLQDDILSFEAEKQAVYQQVYRPVYFQLVDVLLHKAQFPSDEEYGFWSSDEKEQFRIYRVDISDTLMYVYEMLGAELLSNLYDKLGRLLTSSEEPYSWQHTEALLYGFQSIAETIDVNYSDVVPGLIGLIPRISISNVQLADTVMFTIGALSEWLADHPVMINSVLPLVLHALGNPELSVSSVSTLKKICRECKYDLPPYAANIVAVSQDVLMKQIHKTSQCMWLMQALGFLLSALQVEEILKNLHSLISPYIQQLEKLAEEIPNPSNKLAIVHILGLLSNLFTTLDISHHEDDHEGPELRKLPVPQGPNPVVVVLQQVFQLIQKVLSKWLNDAQVVEAVCAIFEKSVKTLLDDFAPMVPQLCEMLGRMYSTIPQASALDLTRQLVHIFAHEPAHFPPIEALFLLVTSVTLTLFQQGPRDHPDIVDSFMQLLAQALKRKPDLFLCERLDVKAVFQCAVLALKFPEAPTVKASCGFFTELLPRCGEVESVGKVVQEDGRMLLIAVLEAIGGQASRSLMDCFADILFALNKHCFSLLSMWIKEALQPPGFPSARLSPEQKDTFSQQILRERVNKRRVKEMVKEFTLLCRGLHGTDYTADY [IPO13] | -0.535 | -0.562 | -0.175 | -0.335 | 51.2 | 51
3 | MESAIAEGGASRFSASSGGGGSRGAPQHYPKTAGNSEFLGKTPGQNAQKWIPARSTRRDDNSAANNSANEKERHDAIFRKVRGILNKLTPEKFDKLCLELLNVGVESKLILKGVILLIVDKALEEPKYSSLYAQLCLRLAEDAPNFDGPAAEGQPGQKQSTTFRRLLISKLQDEFENRTRNVDVYDKRENPLLPEEEEQRAIAKIKMLGNIKFIGELGKLDLIHESILHKCIKTLLEKKKRVQLKDMGEDLECLCQIMRTVGPRLDHERAKSLMDQYFARMCSLMLSKELPARIRFLLQDTVELREHHWVPRKAFLDNGPKTINQIRQDAVKDLGVFIPAPMAQGMRSDFFLEGPFMPPRMKMDRDPLGGLADMFGQMPGSGIGTGPGVIQDRFSPTMGRHRSNQLFNGHGGHIMPPTQSQFGEMGGKFMKSQGLSQLYHNQSQGLLSQLQGQSKDMPPRFSKKGQLNADEISLRPAQSFLMNKNQVPKLQPQITMIPPSAQPPRTQTPPLGQTPQLGLKTNPPLIQEKPAKTSKKPPPSKEELLKLTETVVTEYLNSGNANEAVNGVREMRAPKHFLPEMLSKVIILSLDRSDEDKEKASSLISLLKQEGIATSDNFMQAFLNVLDQCPKLEVDIPLVKSYLAQFAARAIISELVSISELAQPLESGTHFPLFLLCLQQLAKLQDREWLTELFQQSKVNMQKMLPEIDQNKDRMLEILEGKGLSFLFPLLKLEKELLKQIKLDPSPQTIYKWIKDNISPKLHVDKGFVNILMTSFLQYISSEVNPPSDETDSSSAPSKEQLEQEKQLLLSFKPVMQKFLHDHVDLQVSALYALQVHCYNSNFPKGMLLRFFVHFYDMEIIEEEAFLAWKEDITQEFPGKGKALFQVNQWLTWLETAEEEESEEEAD [EIF4G2] | 1.01 | 3.88 | 0.0198 | 0.402 | 48.4 | 48.3
4 | MESEDLSGRELTIDSIMNKVRDIKNKFKNEDLTDELSLNKISADTTDNSGTVNQIMMMANNPEDWLSLLLKLEKNSVPLSDALLNKLIGRYSQAIEALPPDKYGQNESFARIQVRFAELKAIQEPDDARDYFQMARANCKKFAFVHISFAQFELSQGNVKKSKQLLQKAVERGAVPLEMLEIALRNLNLQKKQLLSEEEKKNLSASTVLTAQESFSGSLGHLQNRNNSCDSRGQTTKARFLYGENMPPQDAEIGYRNSLRQTNKTKQSCPFGRVPVNLLNSPDCDVKTDDSVVPCFMKRQTSRSECRDLVVPGSKPSGNDSCELRNLKSVQNSHFKEPLVSDEKSSELIITDSITLKNKTESSLLAKLEETKEYQEPEVPESNQKQWQSKRKSECINQNPAASSNHWQIPELARKVNTEQKHTTFEQPVFSVSKQSPPISTSKWFDPKSICKTPSSNTLDDYMSCFRTPVVKNDFPPACQLSTPYGQPACFQQQQHQILATPLQNLQVLASSSANECISVKGRIYSILKQIGSGGSSKVFQVLNEKKQIYAIKYVNLEEADNQTLDSYRNEIAYLNKLQQHSDKIIRLYDYEITDQYIYMVMECGNIDLNSWLKKKKSIDPWERKSYWKNMLEAVHTIHQHGIVHSDLKPANFLIVDGMLKLIDFGIANQMQPDTTSVVKDSQVGTVNYMPPEAIKDMSSSRENGKSKSKISPKSDVWSLGCILYYMTYGKTPFQQIINQISKLHAIIDPNHEIEFPDIPEKDLQDVLKCCLKRDPKQRISIPELLAHPYVQIQTHPVNQMAKGTTEEMKYVLGQLVGLNSPNSILKAAKTLYEHYSGGESHNSSSSKTFEKKRGKK | 0.873 | 3.46 | 0.0511 | 0.176 | 46.8 | 48.1
5 | MESESESGAAADTPPLETLSFHGDEEIIEVVELDPGPPDPDDLAQEMEDVDFEEEEEEEGNEEGWVLEPQEGVVGSMEGPDDSEVTFALHSASVFCVSLDPKTNTLAVTGGEDDKAFVWRLSDGELLFECAGHKDSVTCAGFSHDSTLVATGDMSGLLKVWQVDTKEEVWSFEAGDLEWMEWHPRAPVLLAGTADGNTWMWKVPNGDCKTFQGPNCPATCGRVLPDGKRAVVGYEDGTIRIWDLKQGSPIHVLKGTEGHQGPLTCVAANQDGSLILTGSVDCQAKLVSATTGKVVGVFRPETVASQPSLGEGEESESNSVESLGFCSVMPLAAVGYLDGTLAIYDLATQTLRHQCQHQSGIVQLLWEAGTAVVYTCSLDGIVRLWDARTGRLLTDYRGHTAEILDFALSKDASLVVTTSGDHKAKVFCVQRPDR [AAMP] | -1.15 | -3.66 | -0.112 | -0.15 | 51.3 | 51.6
6 | MESGFTSKDTYLSHFNPRDYLEKYYKFGSRHSAESQILKHLLKNLFKIFCLDGVKGDLLIDIGSGPTIYQLLSACESFKEIVVTDYSDQNLQELEKWLKKEPEAFDWSPVVTYVCDLEGNRVKGPEKEEKLRQAVKQVLKCDVTQSQPLGAVPLPPADCVLSTLCLDAACPDLPTYCRALRNLGSLLKPGGFLVIMDALKSSYYMIGEQKFSSLPLGREAVEAAVKEAGYTIEWFEVISQSYSSTMANNEGLFSLVARKLSRPL [NNMT] | 3.88 | 4.37 | -0.0166 | 0.584 | 53.4 | 53.7
7 | MESGQPARRIAMAPLLEYERQLVLELLDTDGLVVCARGLGADRLLYHFLQLHCHPACLVLVLNTQPAEEEYFINQLKIEGVEHLPRRVTNEITSNSRYEVYTQGGVIFATSRILVVDFLTDRIPSDLITGILVYRAHRIIESCQEAFILRLFRQKNKRGFIKAFTDNAVAFDTGFCHVERVMRNLFVRKLYLWPRFHVAVNSFLEQHKPEVVEIHVSMTPTMLAIQTAILDILNACLKELKCHNPSLEVEDLSLENAIGKPFDKTIRHYLDPLWHQLGAKTKSLVQDLKILRTLLQYLSQYDCVTFLNLLESLRATEKAFGQNSGWLFLDSSTSMFINARARVYHLPDAKMSKKEKISEKMEIKEGEETKKELVLESNPKWEALTEVLKEIEAENKESEALGGPGQVLICASDDRTCSQLRDYITLGAEAFLLRLYRKTFEKDSKAEEVWMKFRKEDSSKRIRKSHKRPKDPQNKERASTKERTLKKKKRKLTLTQMVGKPEELEEEGDVEEGYRREISSSPESCPEEIKHEEFDVNLSSDAAFGILKEPLTIIHPLLGCSDPYALTRVLHEVEPRYVVLYDAELTFVRQLEIYRASRPGKPLRVYFLIYGGSTEEQRYLTALRKEKEAFEKLIREKASMVVPEEREGRDETNLDLVRGTASADVSTDTRKAGGQEQNGTQQSIVVDMREFRSELPSLIHRRGIDIEPVTLEVGDYILTPEMCVERKSISDLIGSLNNGRLYSQCISMSRYYKRPVLLIEFDPSKPFSLTSRGALFQEISSNDISSKLTLLTLHFPRLRILWCPSPHATAELFEELKQSKPQPDAATALAITADSETLPESEKYNPGPQDFLLKMPGVNAKNCRSLMHHVKNIAELAALSQDELTSILGNAANAKQLYDFIHTSFAEVVSKGKGKK [ERCC4] | 0.278 | 0.608 | -0.274 | -0.215 | 49.6 | 50.4
8 | MESMFSSPAEAALQRETGVPGLLTPLPDLDGVYELERVAGFVRDLGCERVALQFPDQLLGDAVAVAARLEETTGSKMFILGDTAYGSCCVDVLGAEQAGAQALIHFGPACLSPPARPLPVAFVLRQRSVALELCVKAFEAQNPDPKAPVVLLSEPACAHALEALATLLRPRYLDLLVSSPAFPQPVGSLSPEPMPLERFGRRFPLAPGRRLEEYGAFYVGGSKASPDPDLDPDLSRLLLGWAPGQPFSSCCPDTGKTQDEGARAGRLRARRRYLVERARDARVVGLLAGTLGVAQHREALAHLRNLTQAAGKRSYVLALGRPTPAKLANFPEVDVFVLLACPLGALAPQLSGSFFQPILAPCELEAACNPAWPPPGLAPHLTHYADLLPGSPFHVALPPPESELWETPDVSLITGDLRPPPAWKSSNDHGSLALTPRPQLELAESSPAASFLSSRSWQGLEPRLGQTPVTEAVSGRRGIAIAYEDEGSG [DPH2] | -0.452 | -1.28 | -0.0726 | 0.268 | 53.9 | 53.4
